Test results from patent US12497460B2, “Anti-MSR1 antibodies and methods of use thereof” (REGENERON PHARMACEUTICALS, INC., priority 2018, dated 2025).

T1: Ac-LDL binding to His9-hMSR1 (Homo sapiens, UniProt P21757)
T1 construct: human MSR1 extracellular domain expressed with a N-terminal nonahistidine tag; His9 (nonahistidine) (N); purchased R&D Systems 2708-MS
T1 sequence (P21757 77-451 limits assumed): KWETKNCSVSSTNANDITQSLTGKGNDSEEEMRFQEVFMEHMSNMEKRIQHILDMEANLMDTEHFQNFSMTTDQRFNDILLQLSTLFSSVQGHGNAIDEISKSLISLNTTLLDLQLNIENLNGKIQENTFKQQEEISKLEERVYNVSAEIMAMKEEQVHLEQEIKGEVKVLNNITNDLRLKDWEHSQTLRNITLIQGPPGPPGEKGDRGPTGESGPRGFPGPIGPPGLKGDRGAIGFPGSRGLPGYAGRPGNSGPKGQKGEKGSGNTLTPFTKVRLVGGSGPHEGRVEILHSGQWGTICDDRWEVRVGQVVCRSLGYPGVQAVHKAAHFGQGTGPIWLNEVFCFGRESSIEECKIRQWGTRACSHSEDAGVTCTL

T2: Ox-LDL binding to His9-hMSR1 (Homo sapiens, UniProt P21757)
T2 construct: human MSR1 extracellular domain expressed with a N-terminal nonahistidine tag; His9 (nonahistidine) (N); purchased R&D Systems 2708-MS
T2 sequence (P21757 77-451 limits assumed): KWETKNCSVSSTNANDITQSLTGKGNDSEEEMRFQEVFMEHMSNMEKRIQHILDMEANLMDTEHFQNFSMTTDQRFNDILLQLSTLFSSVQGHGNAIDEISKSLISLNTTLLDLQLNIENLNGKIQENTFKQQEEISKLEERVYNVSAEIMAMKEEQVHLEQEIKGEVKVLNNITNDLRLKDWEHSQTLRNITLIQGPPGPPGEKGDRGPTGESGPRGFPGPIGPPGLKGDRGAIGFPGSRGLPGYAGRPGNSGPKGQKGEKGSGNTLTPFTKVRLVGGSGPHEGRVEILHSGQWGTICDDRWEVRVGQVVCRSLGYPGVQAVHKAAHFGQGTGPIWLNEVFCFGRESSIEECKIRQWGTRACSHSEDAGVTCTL

T3: HEK293.Myc.hMSR1 cells (human MSR1) (Homo sapiens, UniProt P21757)
T3 construct: expressed in transfected cells; host or cells: HEK293 (lentiviral transduction, hygromycin selection)
T3 sequence (P21757 1-451): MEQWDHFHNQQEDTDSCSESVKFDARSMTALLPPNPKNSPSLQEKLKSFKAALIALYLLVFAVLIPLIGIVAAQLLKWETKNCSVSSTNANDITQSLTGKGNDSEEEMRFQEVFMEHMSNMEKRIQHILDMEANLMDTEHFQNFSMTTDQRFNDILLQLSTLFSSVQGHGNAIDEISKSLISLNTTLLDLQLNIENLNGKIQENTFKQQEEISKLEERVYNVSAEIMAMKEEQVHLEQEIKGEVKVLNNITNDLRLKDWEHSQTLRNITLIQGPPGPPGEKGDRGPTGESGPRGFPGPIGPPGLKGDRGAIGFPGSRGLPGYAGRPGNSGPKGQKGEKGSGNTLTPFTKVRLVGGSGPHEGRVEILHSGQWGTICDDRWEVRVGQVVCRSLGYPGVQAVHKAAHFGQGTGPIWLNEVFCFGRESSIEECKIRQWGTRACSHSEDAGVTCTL


Columns and labels:
[1] = target: T1, Ac-LDL binding to His9-hMSR1; test: Competition sandwich ELISA, blocking of Ac-LDL binding; conditions: 50 pM Ac-LDL
Procedure: (§1) The ability of anti-MSR1 antibodies disclosed herein to block the binding of various ligands to human MSR1 was measured using three competition sandwich ELISA assays. The ligands used in the assays were: (1) acetylated LDL (Ac-LDL), (2) oxidized LDL (Ox-LDL), and (3) advanced glycation end-products of bovine serum albumin (AGE-BSA).
(§2) Anti-MSR1 antibodies or isotype control antibodies were serially diluted as appropriate for each tested ligand and added in duplicate for each serial dilution set to microtiter plates coated with His9-hMSR1. Buffer alone was also added to wells on each coat. […] This assay was conducted in four different assay runs.
(§3) Data analysis was performed using a sigmoidal dose-response model within Prism™ software (GraphPad). Percent blockade at maximum concentration of the antibody tested in each assay was calculated as an indicator of the ability of the antibodies to block the binding of Ac-LDL, Ox-LDL or biot-AGE-BSA to His9-hMSR1 on the plate relative to the baseline of the assay. In the calculation, binding signal of the same concentrations of Ac-LDL, Ox-LDL, or biot-AGE-BSA used for the assays in the absence of antibody was referenced as 100% binding or 0% blocking, while the baseline of the assay, defined as binding signal of the sample of buffer without MSR1 ligands or antibody, was referenced as 0% binding or 100% blocking. The maximum percent blockade at the highest concentration of antibody tested in each assay are reported for all antibodies.

[2] = target: T2, Ox-LDL binding to His9-hMSR1; test: Competition sandwich ELISA, blocking of Ox-LDL binding; conditions: antibody 500 nM, Ox-LDL 10 nM
Procedure: as §1, §2, §3

[3] = target: T3, HEK293.Myc.hMSR1 cells (human MSR1); test: Electrochemiluminescence antibody binding assay on MSR1-expressing cells; format: cell-based
[4] = tested on: HEK293.mfMSR1 cells (monkey MSR1); test: as above; format: cell-based, Macaca fascicularis

Molecule	Anti-MSR1 antibody (100 nM) blocking of Ac-LDL binding to His9-hMSR1 % Blocking [1]	anti-MSR1 antibody blocking of Ox-LDL binding to His9-hMSR1 % Blocking [2]	Ratio of 11 nM Antibody Binding Signal (RLU) to isotype control, HEK293.Myc.hMSR1 [3]	Ratio of 11 nM Antibody Binding Signal (RLU) to isotype control, HEK293.mfMSR1 [4]
H1H21227N-N297Q: "modified versions of 21227N (H1H21227N-N297Q and H1H21227N-N297D)"; anti-MSR1 antibody "with a N297Q single point mutation" (antibody, V domains shown) VH: QVQLVQSGAEVKKPGASVKVSCKVSGYTLTELSIHWVRQVPGKGLEWMGGFDPEEGETIFAQEFRDRVTLTEDTSPDTAYMELSSLKSEDAAVYYCTTPRYCNNGICYDYWGQGTLVTVSS VL: DIQMTQSPSSLSASVGDRVTITCRASQSISNYLNWYQQKPGKAPKLLIYTASSLQSGVPSRFSGSGSGTDFTLTISSLQTEDFATYYCQQSYSNFPITFGQGTRLEIKR	105%	97%	37	23
H1H21227N: "anti-MSR1 antibodies ... (21227N, 21231N, 21234N) were produced with the original human Fcγ portion"; "H1H" = human IgG1 Fc (antibody, V domains shown, human IgG1 Fc, "anti-MSR1 antibodies ; (21227N, 21231N, 21234N) were produced with the original human Fcγ portion"; "H1H" = human IgG1 Fc) VH: QVQLVQSGAEVKKPGASVKVSCKVSGYTLTELSIHWVRQVPGKGLEWMGGFDPEEGETIFAQEFRDRVTLTEDTSPDTAYMELSSLKSEDAAVYYCTTPRYCNNGICYDYWGQGTLVTVSS VL: DIQMTQSPSSLSASVGDRVTITCRASQSISNYLNWYQQKPGKAPKLLIYTASSLQSGVPSRFSGSGSGTDFTLTISSLQTEDFATYYCQQSYSNFPITFGQGTRLEIKR	105%	100%	37	26
H1H21227N-N297D: "The 21227N antibody was also produced as a third version with a N297D mutation" (antibody, V domains shown) VH: QVQLVQSGAEVKKPGASVKVSCKVSGYTLTELSIHWVRQVPGKGLEWMGGFDPEEGETIFAQEFRDRVTLTEDTSPDTAYMELSSLKSEDAAVYYCTTPRYCNNGICYDYWGQGTLVTVSS VL: DIQMTQSPSSLSASVGDRVTITCRASQSISNYLNWYQQKPGKAPKLLIYTASSLQSGVPSRFSGSGSGTDFTLTISSLQTEDFATYYCQQSYSNFPITFGQGTRLEIKR	101%	99%	34	25

The next lines start with results.

Anti-MSR1 antibody (100 nM) blocking of Ac-LDL binding to His9-hMSR1 % Blocking [1]	anti-MSR1 antibody blocking of Ox-LDL binding to His9-hMSR1 % Blocking [2]	Ratio of 11 nM Antibody Binding Signal (RLU) to isotype control, HEK293.Myc.hMSR1 [3]	Molecule	Ratio of 11 nM Antibody Binding Signal (RLU) to isotype control, HEK293.mfMSR1 [4]
−62%	22%	61	H1H21231N: "anti-MSR1 antibodies ... (21227N, 21231N, 21234N) were produced with the original human Fcγ portion"; "H1H" = human IgG1 Fc (antibody, V domains shown, human IgG1 Fc, "anti-MSR1 antibodies ; (21227N, 21231N, 21234N) were produced with the original human Fcγ portion"; "H1H" = human IgG1 Fc) VH: EVQLVESGGGLVQPGGSLRLSCAASGFTFSDHYMDWVRQAPGKGLEWVGRTRNKANSHTTEYTASVTGRFTISRDDSRNSLYLQMNSLKTEDTAVYYCVRAGIIGTLFDYWGQGTLVTVSS VL: DIQMTQFPSSLSASVGDRVTITCRASQSISSFLNWFQQKPGKAPKFLIYAASSLQSGVPSRFSGSGSGTDFTLTISSLQPEDFATYYCQQSYSSPPITFGQGTRLEIKR	75
−60%	26%	–	H1H21231N-N297Q: modified version of "21231N (H1H21231N-N297Q) anti-MSR1 antibodies" with "a N297Q single point mutation" (antibody, V domains shown) VH: EVQLVESGGGLVQPGGSLRLSCAASGFTFSDHYMDWVRQAPGKGLEWVGRTRNKANSHTTEYTASVTGRFTISRDDSRNSLYLQMNSLKTEDTAVYYCVRAGIIGTLFDYWGQGTLVTVSS VL: DIQMTQFPSSLSASVGDRVTITCRASQSISSFLNWFQQKPGKAPKFLIYAASSLQSGVPSRFSGSGSGTDFTLTISSLQPEDFATYYCQQSYSSPPITFGQGTRLEIKR	–
